The numbers were not newly measured in patent US20060193824A1, “Methods for the treatment of infectious and inflammatory airway diseases” (priority 2005, published 2006), which cites them from elsewhere.

Series [1] concerns inflammation.
The subject of series [2] is respiratory epithelial cells.
Series [3] relates to mucus production.

B1: IL-10: cytokine obtainable from R & D systems (protein, UniProt P22301 19-178, looked up)
Interleukin-10: SPGQGTQSENSCTHFPGNLPNMLRDLRDAFSRVKTFFQMKDQLDNLLLKESLLEDFKGYLGCQALSEMIQFYLEEVMPQAENQDPDIKAHVNSLGENLKTLRLRLRRCHRFLPCENKSKAVEQVKNAFNKLQEKGIYKAMSEFDIFINYIEAYMTMKIRN
Regarding B1, the inflammation entry in series [1] was “attenuates excessive inflammation”.

B2: Human neutrophil elastase: Human neutrophil elastase (protein, UniProt P08246 30-267, looked up)
Neutrophil elastase: IVGGRRARPHAWPFMVSLQLRGGHFCGATLIAPNFVMSAAHCVANVNVRAVRVVLGAHNLSRREPTRQVFAVQRIFENGYDPVNLLNDIVILQLNGSATINANVQVAQLPAQGRRLGNGVQCLAMGWGLLGRNRGIASVLQELNVTVVTSLCRRSNVCTLVRGRQAGVCFGDSGSPLVCNGLIHGIASFVRGGCASGLYPDAFAPVAQFVNWIDSIIQRSEDNPCPHPRDPDPASRTH
For B2, in series [2], the MUC5AC levels result is reported as “increase MUC5AC levels”.

B3: IL-4: cytokine obtainable from R & D Systems (protein, UniProt P05112 25-153, looked up)
Interleukin-4: HKCDITLQEIIKTLNSLTEQKTLCTELTVTDIFAASKNTTEKETFCRAATVLRQFYSHHEKDTRCLGATAQQFHRHKQLIRFLKRLDRNLWGLAGLNSCPVKEANQSTLENFLERLKTIMREKYSKCSS
Take B3: in series [3], the mucus production entry was “modulates mucus production”.
